Measured values published in US20190177415A1 (PIERRE FABRE MEDICAMENT, published 2019).

T1: C10orf54 (antigen of the KD values in Table 42) (human, UniProt Q9H7M9 33-311, limits assumed)
T1 sequence: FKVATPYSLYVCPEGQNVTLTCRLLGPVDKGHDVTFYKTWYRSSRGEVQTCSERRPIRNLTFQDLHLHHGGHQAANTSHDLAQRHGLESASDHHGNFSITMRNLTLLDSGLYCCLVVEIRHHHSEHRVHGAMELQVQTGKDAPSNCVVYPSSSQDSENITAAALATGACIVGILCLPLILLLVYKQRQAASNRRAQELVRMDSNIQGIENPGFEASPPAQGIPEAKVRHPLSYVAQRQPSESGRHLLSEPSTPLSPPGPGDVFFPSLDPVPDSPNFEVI

T2: full length cynomolgus monkey C10orf54 (construct CC4) (cynomolgus monkey, UniProt Q9H7M9 33-311 (human entry))
T2 construct: also called C10orf54 Construct 4
T2 chain: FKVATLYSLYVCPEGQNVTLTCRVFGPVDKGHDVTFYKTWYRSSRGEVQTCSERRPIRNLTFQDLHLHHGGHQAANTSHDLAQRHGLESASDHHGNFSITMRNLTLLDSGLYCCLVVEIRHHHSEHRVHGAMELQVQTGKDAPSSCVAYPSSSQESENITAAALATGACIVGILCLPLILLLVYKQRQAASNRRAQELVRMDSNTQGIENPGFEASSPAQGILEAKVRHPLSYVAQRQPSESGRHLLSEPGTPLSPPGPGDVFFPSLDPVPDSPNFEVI

T3: chimeric C10orf54: human IgV with mouse STALK (construct CC5) (human/mouse chimera)
T3 construct: also called C10orf54 Construct 5; hsIGVmmSTALK
T3 chain: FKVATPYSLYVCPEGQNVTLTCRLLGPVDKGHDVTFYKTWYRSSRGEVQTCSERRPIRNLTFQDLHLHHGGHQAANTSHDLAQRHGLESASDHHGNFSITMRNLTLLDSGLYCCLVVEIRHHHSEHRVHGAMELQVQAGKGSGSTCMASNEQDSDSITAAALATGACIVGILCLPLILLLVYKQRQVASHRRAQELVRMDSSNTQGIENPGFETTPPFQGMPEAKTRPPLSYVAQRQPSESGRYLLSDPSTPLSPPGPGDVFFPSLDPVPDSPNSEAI

T4: chimeric C10orf54: first half of IgV mouse and remainder (including loop) human (construct CC8) (human/mouse chimera, UniProt Q9H7M9 33-311)
T4 construct: also called C10orf54 Construct 8; mmabChsC10
T4 chain: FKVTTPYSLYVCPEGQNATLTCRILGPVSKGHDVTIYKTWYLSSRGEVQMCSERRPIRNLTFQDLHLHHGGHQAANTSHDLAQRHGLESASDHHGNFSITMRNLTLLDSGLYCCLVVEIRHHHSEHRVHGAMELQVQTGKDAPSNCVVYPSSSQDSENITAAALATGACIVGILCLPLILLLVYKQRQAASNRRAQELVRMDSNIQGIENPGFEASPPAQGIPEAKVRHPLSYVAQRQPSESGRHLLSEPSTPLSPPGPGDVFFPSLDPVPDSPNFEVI

T5: chimeric C10orf54: human with mouse loop (construct CC9) (human/mouse chimera, UniProt Q9H7M9 33-311)
T5 construct: also called C10orf54 Construct 9; hsC10mmLOOP
T5 chain: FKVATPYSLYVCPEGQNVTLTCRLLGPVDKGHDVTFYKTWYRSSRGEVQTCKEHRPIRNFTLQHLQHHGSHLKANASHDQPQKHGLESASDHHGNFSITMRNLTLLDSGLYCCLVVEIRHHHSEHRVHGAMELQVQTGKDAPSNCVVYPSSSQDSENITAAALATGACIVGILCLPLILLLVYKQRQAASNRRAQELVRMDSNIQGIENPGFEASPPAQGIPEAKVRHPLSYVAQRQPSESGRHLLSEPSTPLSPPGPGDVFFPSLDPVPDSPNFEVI

T6: chimeric C10orf54: first half of IgV human and remainder (including loop) mouse (construct CC7) (human/mouse chimera, UniProt Q9D659 33-308 (mouse entry))
T6 construct: also called C10orf54 Construct 7; hsABCmmC10
T6 chain: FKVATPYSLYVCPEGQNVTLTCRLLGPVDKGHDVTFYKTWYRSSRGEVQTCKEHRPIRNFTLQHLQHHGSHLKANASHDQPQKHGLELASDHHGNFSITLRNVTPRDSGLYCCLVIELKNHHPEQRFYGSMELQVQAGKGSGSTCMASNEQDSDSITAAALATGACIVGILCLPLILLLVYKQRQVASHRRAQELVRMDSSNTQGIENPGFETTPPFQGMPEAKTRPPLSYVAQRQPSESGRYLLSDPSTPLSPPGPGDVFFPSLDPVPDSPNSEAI

T7: chimeric C10orf54: mouse with human loop (construct CC10) (human/mouse chimera, UniProt Q9D659 33-308 (mouse entry))
T7 construct: also called C10orf54 Construct 10; mmC10hsLOOP
T7 chain: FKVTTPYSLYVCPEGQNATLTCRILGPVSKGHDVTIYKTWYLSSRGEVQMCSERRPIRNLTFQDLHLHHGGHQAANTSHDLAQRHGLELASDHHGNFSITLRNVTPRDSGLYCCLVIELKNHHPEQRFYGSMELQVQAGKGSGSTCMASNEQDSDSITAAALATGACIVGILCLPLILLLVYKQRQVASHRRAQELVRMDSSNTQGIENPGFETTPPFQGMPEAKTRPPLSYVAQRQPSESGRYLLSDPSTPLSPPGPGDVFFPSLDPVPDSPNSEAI

B1: murine monoclonal antibody 141A (antibody, V domains shown)
VH: QVQLQQSGAELMKPGASVKISCKATGYTFSRYWIEWVKQRPGHGLEWIGEILPGSGSTNYNEKFKGKATFTADTSSNTAYMQLSSLTSEDSAVYYCAGEEVYDGYPWFGYWGQGTLVTVSA
VL: QIVLSQSPAILSASPGEKVTMTCRASSSLSYMHWYQQKPGSSPKPWIYATSNLASGVPARFSGSGSGTSYSLTISRVEAEDAATYYCQQWSSNPYTFGGGTKLEIK
notes: Mouse hybridoma antibody
B2: murine monoclonal antibody 353A (antibody, V domains shown)
VH: EVKLLESGGGLVQPGGSLKLSCAASGFDFSRYWMNWVRQAPGKGLEWIGEINPDSSTINYTPSLKDKFIISRDNAKNTLYLQMSKVRYEDTALYYCARPGEIYYYGSYWFAYWGQGTLVTVSA
VL: DIVLTQSPASLAVSLGQRATISCRASESVEYYGTSLMQWFQQKPGQPPKLLIYAASNVESRVPARFSGSGSGTDFSLNIHPVEEDDIAMYFCQQSRKDPWTFGGGTKLEIK
notes: Mouse hybridoma antibody
B3: murine monoclonal antibody 305A (antibody, V domains shown)
VH: DVQLQESGPGLVKPSQSLSLTCSVTGYSITSGYYWNWIRQFPGNKLEWMGYISYDGSNNYNPSLKNRISITRDTSKNQFFLKLNSVTTEDTATYYCARRHDYLSFAYWGQGTLVIVSA
VL: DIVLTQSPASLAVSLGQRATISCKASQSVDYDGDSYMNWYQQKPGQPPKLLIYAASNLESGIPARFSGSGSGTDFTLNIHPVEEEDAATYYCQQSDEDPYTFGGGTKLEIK
notes: Mouse hybridoma antibody
B4: murine monoclonal antibody 26A (antibody, V domains shown)
VH: EVQLQQSGPELVKPGASMKISCKASGFSFTGYTMNWVKQSHVKNLEWIGLISPYNGGTSYNQKFKGKATLTVDKSSSTAYMELLSLTSEDSAVYYCARRAYGYAMDYWGQGTSVTVSS
VL: QIVLTQSPAIMSASPGEKVTMTCSASSSVSYMYWYQQKPGSSPRLLIYDTSNLASGVPLRFSGSGSGTSYSLTISRMEAEDAATYYCQQWSSYPFTFGSGTKLEIK
notes: Mouse hybridoma antibody
B5: murine monoclonal antibody 230A (antibody, V domains shown)
VH: EVQLQQSGPELEKPGASVKISCKASGYSFTGSNMNWVKQNNGKSLEWIGNIDPYYGYTTYNQKFKGKATLTVDKSSSTAYMQLKSLTSEDSAVYYCARDYDYALGYFDVWGAGTTVTVSS
VL: DVVMTQTPLSLPVSLGDQASISCRSSQSLVHSNGNTYLHWYLQKPGQSPKLLIYKVSNRFSGVPDRFSGSGSGTDFTLKISRVEAEDLGVYFCSQSTHVPYTFGGGTKLEIK
notes: Mouse hybridoma antibody
B6: murine monoclonal antibody 33A (antibody, V domains shown)
VH: QVQLQQSGAELMKPGASVKISCKATGYTFSSYWIEWVKQRPGHGLEWIGEILPGSGSTSYNEKFKGKATFTADTSSNTAYMQLSGLTSEDSAVYYCARWLLYYYAMVYWGQGTSVTVSS
VL: DVLMTQTPLSLPVSLGDQASISCRSSQSIVHSNGNTYLEWYLQKPGQSPKLLIYKVSNRFSGVPDRFSGSGSGTDFTLKISRVEAEDLGVYYCFQGSHVPYTFGGGTKLEIK
notes: Mouse hybridoma antibody
B7: murine monoclonal antibody 175A (antibody, V domains shown)
VH: QVQLQQSGAELMKPGASVKISCKATGYTFSTHWIEWVKQRPGHGLEWIGEILPGSGSTSYNEKFKGKATFTADTSSNTAYMQLSSLTSEDSAVYYCARWLLYYYAMDYWGQGTSVTVSS
VL: DVLMTQTPLSLPVSLGDQASISCRSSQSIVHSNGNTYLEWYLQKPGQSPKLLIYKLSNRFSGVPDRFSGSGSGTDFTLKISRVEAEDLGVYYCFQGSHFPYTFGGGTKLEIK
notes: Mouse hybridoma antibody
B8: murine monoclonal antibody 321D (antibody, V domains shown)
VH: QVQLQQSGAELMKPGAAVKISCKATGYTFSSHWIEWVKQRPGHGLEWIGEILPGSGSTDYNEKFKGKATFTADTSSNTAYMQLSSLTSEDSAVYYCARWLLYYYAMDYWGQGTSVTVSS
VL: DVLMTQTPLSLPVSLGDQASISCRSSQSIVHSNGNTYLEWYLQKPGQSPKLLIYKVSNRFSGVPDRFSGSGSGTDFTLKITRVEAEDLGVYYCFQGSHVPFTFGGGTKLEIK
notes: Mouse hybridoma antibody

Tests used:
[1] = biological target: T1, C10orf54 (antigen of the KD values in …); assay: method and antigen form not stated
[2] = biological target: T2, full length cynomolgus monkey C10orf54 …; assay: flow cytometry, transfected 293t cells, 2 ug/ml; stain = MFI >=20-fold over isotype control
Method: (§1) To investigate epitope diversity of the anti-human C10orf54 antibodies, 293t cells were transfected with 1 of 10 different C10orf54 expression constructs that co-express a fluorescent marker. Two days after transfection, cells were stripped from the tissue culture plate, stained with 2 μg/ml anti-human C10orf54 antibody , washed, stained with anti-mouse IgG-Fc Alexa Fluor 647 polyclonal antibody, washed, and stained with the viability dye 4′,6-Diamidino-2-Phenylindole, Dihydrochloride. Upon acquisition of 10,000 live events on a flow cytometer, live cells marked with the fluorescent marker were analyzed for the degree of staining by the anti-human C10orf54 antibody. When the median fluorescence intensity fold-change relative to an isotype control antibody was at least 20-fold, the antibody was considered to stain the C10orf54 expression construct in question.

[3] = biological target: T3, chimeric C10orf54: human IgV with mouse …; assay: as above
Method: as §1

[4] = biological target: T4, chimeric C10orf54: first half of IgV …; assay: as above
Method: as §1

[5] = biological target: T5, chimeric C10orf54: human with mouse …; assay: as above
Method: as §1

[6] = biological target: T1, C10orf54 (antigen of the KD values in …); assay: method and antigen form not stated; footnote: low affinity antibody
[7] = biological target: T6, chimeric C10orf54: first half of IgV …; assay: flow cytometry, transfected 293t cells, 2 ug/ml; stain = MFI >=20-fold over isotype control
Method: as §1

[8] = biological target: T7, chimeric C10orf54: mouse with human …; assay: as above
Method: as §1

Binder | Kd [1] [nM] | binding result [2] | binding result [3] | binding result [4] | binding result [5] | Kd [6] [nM] | binding result [7] | binding result [8]
B1 | 1.27 | binds | binds | binds | binds | – | – | –
B2 | 2.9 | binds | binds | binds | binds | – | – | –
B3 | – | binds | binds | – | binds | 20.8 | binds | –
B4 | 0.677 | binds | binds | binds | – | – | – | binds
B5 | 1.05 | binds | binds | binds | – | – | – | binds
B6 | 6.61 | binds | binds | binds | – | – | – | binds
B7 | – | binds | binds | – | – | 108 | – | –
B8 | 7.26 | binds | binds | binds | – | – | – | binds
